Measurements published in article PMC12752688.

Assays:
Trigger Factor = Trigger Factor (UniProt P0A850); test: high-speed AFM (HS-AFM); TF alone at 5 uM on mica; projected area and height compared with monomers
[1] = molecular target: ribosome-nascent chain complex (not stated | E. coli) (UniProt P0ADZ0); test: high-speed AFM (HS-AFM); RNC (2 nM) on mica, TF (1 uM) in the imaging solution, physiological buffer; 1 frame/s, 22-25 °C; dwell time analysis of single binding events
[2] = molecular target: native 70S ribosome from E. coli (E. coli) (UniProt P0ADZ0); test: high-speed AFM (HS-AFM); 70S ribosomes without nascent chain partially immobilised on mica, TF in the imaging solution at a molar ratio of 200:1 TF:ribosome; 1 frame/s, 22-25 °C
[3] = molecular target: Trigger factor (Escherichia coli) (UniProt P0A850); conditions: cited from earlier work

Trigger Factor (from UniProt P0A850 1-432) (natural protein), sequence (P0A850 whole entry): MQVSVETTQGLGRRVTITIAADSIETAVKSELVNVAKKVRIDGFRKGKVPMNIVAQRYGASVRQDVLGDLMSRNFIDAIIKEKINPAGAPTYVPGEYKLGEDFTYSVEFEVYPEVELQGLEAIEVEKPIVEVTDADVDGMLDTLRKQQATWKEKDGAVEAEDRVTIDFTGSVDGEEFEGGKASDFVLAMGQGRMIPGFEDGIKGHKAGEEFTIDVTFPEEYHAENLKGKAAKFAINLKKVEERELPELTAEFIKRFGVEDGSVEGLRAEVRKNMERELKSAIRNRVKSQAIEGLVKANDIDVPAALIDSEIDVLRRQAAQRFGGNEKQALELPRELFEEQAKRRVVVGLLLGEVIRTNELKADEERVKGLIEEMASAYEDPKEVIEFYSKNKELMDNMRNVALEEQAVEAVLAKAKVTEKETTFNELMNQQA
Trigger factor, sequence (P0A850 whole entry): as above

| stoichiometry N (Trigger Factor) | duration of association [1] | duration of individual binding events [1] | longest interaction time (exit-tunnel site) [1] | longest interaction time (peripheral site) [1] | mean interaction time (exit-tunnel site) [1] | mean interaction time (peripheral site) [1] | stoichiometry N [1] | duration of association [2] | Substance | Kd [3] |
| --- | --- | --- | --- | --- | --- | --- | --- | --- | --- | --- |
| 2 | > 5 s | > 30 s | < 80 s | > 30 s | 8 s | 3.9 s | 2 | < 5 s | Trigger Factor (from UniProt P0A850 1-432) (natural protein) | – |
| – | – | – | – | – | – | – | – | – | Trigger factor (from UniProt P0A850) | 1500 nM |
